Measurements: patent US20210147523A1 (TEIJIN PHARMA, published 2021)
Numbering of substitutions follows the chain as printed.

T1: Mutant 1 of human SPNS2 (FLAG tag inserted in extracellular loop 1) (human, UniProt Q8IVW8 1-549)
T1 construct: on HEK293 cells; also called extracellular loop 1 mutant
T1 sequence: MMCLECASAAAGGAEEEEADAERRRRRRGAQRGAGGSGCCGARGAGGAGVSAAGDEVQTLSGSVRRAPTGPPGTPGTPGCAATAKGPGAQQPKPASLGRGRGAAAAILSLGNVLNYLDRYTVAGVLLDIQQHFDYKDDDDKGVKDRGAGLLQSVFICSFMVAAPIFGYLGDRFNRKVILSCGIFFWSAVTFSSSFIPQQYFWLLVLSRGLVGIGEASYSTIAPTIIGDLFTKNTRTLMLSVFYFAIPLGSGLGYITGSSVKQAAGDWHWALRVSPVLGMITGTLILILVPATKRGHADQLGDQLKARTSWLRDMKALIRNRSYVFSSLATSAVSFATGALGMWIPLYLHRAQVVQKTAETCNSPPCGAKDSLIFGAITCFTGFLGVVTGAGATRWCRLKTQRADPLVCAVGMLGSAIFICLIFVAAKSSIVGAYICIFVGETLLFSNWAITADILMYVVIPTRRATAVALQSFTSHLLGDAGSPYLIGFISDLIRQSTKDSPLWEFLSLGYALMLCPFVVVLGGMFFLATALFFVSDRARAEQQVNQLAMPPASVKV

T2: Mutant 3 of human SPNS2 (FLAG tag inserted in extracellular loop 7) (human, UniProt Q8IVW8 1-549)
T2 construct: on HEK293 cells; also called extracellular loop 7 mutant
T2 sequence: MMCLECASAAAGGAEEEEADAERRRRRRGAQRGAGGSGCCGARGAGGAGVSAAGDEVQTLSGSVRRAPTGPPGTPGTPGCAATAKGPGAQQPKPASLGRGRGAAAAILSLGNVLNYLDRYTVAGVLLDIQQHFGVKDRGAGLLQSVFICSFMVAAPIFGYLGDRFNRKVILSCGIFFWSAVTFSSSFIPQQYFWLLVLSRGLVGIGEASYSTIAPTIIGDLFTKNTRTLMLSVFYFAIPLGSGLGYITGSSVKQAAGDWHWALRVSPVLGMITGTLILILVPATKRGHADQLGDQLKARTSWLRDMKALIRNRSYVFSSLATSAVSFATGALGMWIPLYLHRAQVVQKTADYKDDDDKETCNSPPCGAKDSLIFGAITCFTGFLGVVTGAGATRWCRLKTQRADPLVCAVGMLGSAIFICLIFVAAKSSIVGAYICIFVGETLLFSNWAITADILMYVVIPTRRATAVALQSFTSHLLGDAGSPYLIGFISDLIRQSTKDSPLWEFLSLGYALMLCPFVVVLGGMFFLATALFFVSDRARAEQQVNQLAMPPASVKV

T3: Mutant 4 of human SPNS2 (FLAG tag inserted in extracellular loop 11) (human, UniProt Q8IVW8 1-549)
T3 construct: on HEK293 cells; also called extracellular loop 11 mutant
T3 sequence: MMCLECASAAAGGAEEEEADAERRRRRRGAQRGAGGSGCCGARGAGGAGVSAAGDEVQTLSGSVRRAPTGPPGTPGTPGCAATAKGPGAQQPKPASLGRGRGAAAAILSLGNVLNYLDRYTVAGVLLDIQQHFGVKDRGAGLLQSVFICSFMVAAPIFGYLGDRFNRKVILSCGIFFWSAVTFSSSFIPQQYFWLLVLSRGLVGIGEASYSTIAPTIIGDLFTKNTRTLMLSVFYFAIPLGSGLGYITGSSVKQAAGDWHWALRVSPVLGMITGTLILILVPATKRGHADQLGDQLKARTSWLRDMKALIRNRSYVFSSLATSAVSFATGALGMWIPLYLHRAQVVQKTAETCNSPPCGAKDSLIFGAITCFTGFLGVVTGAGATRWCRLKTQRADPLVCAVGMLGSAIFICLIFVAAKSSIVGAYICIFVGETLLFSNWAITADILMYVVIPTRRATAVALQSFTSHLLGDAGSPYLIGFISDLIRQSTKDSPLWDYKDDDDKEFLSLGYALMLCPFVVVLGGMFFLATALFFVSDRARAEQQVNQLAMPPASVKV

T4: Mutant 2 of human SPNS2 (FLAG tag inserted in extracellular loop 5) (human, UniProt Q8IVW8 1-549)
T4 construct: on HEK293 cells; also called extracellular loop 5 mutant
T4 sequence: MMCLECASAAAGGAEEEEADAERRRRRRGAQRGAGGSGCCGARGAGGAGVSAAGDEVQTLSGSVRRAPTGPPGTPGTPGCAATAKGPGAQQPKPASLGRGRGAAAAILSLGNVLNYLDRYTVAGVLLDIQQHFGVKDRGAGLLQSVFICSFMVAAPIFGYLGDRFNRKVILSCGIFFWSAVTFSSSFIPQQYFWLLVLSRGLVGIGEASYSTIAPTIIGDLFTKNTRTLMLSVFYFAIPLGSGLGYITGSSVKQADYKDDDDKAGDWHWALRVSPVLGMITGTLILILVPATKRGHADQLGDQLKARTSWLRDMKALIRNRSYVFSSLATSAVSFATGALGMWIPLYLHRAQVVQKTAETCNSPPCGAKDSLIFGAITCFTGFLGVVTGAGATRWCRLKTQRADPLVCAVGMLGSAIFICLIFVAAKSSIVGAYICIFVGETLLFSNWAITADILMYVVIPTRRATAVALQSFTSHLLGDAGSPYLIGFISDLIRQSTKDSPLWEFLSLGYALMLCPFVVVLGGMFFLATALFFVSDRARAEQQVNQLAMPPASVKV

B1: 33-0503E (antibody, IgG2b, V domains shown)
VH: EVQLVESGGGLVRPGGSMKLSCGASGFIFDNYYMTWVRQAPTKGLEWVASISSSGGNTYYRDSVRGRFTISRDNAGNTLSLQMGSLRAEDTATYHCAKEGYRGRYFDYWGQGVMVTVSS
VL: QVVLTQPNSVSTNLGSTVKLSCKRTTGNIGSNYVNWYQQHEGRSPTTMIYRDDERPDGVPDRFSGSIDRSSNSALLTINNVQTEDEAEYFCQSYSSGIIFGGGTKLTVL
B2: 80-1104A (antibody, IgG2b, V domains shown)
VH: EVQLVETGGGLVQPGSSLKLSCSTSGFTFSETWMSWVRQAPGKGLEWVGLIKDKNSNYEANYAESVKGRFTISRDDSKRRVYLQMYTLRDQDTATYYCTSHEDFYYYSSYYFDYWGQGVMVTVSS
VL: DIVLTQSPATLSVTPGESVSLSCRASQGISTSIHWYQQKSNESPRLLIKYASQSMSGIPSRFSGSGSGTDFTLRINRVESEDFSVYYCQQSYNLPLTFGSGTKLEIKR
B3: 93-1310F (antibody, IgG2b, V domains shown)
VH: B2 VH with S23A, E31D, G49A, Y86F, Q117H
VL: B2 VL with E42G, M55I, S91T, N93S, K103R
B4: 49-0703G (antibody, IgG2b, V domains shown)
VH: EVQLVESGGGLVQPGRSMKLSCAASGFTFSNHYMAWVRQAPTKGLEWVASISTGGGNTYYRDSVKGRFTISRDNAKSTLYLQMDSLRSEDTATYYCARQDYSNYMGGFAYWGQGTLVTVSS
VL: QFVLTQPNSVSTNLGSTVKLSCKRSTGNIGNNYVNWYQQYEGRSPTTMIYRDDERPDGVPDRFSGSIDRSSNSALLTINNVQTEDEADYFCQSFSNGMFIFAGGTQLTVL
B5: 94-1311E (antibody, V domains shown)
VH: EVQLQQSGAGLVRPRTSVRLSCKISGDSITAYYVHFVKQRPGQGLEWIGRIDPEDDSTKYSEKFKNKATLTADVSSSTAYLILSSLTSDDSATYFCSTLTGLDYWGQGVMVTVSS
VL: DIQMTQSPPVLSASVGDRVTLSCKASQSVHNKLDWYQQKHGEAPKLLIYYTHNLQTGIPSRFSGSGSGSDYTLTISSLRAEDVATYYCFQYYSGWTFGGGTKLEMKR
B6: 83-1110B (antibody, IgG2b, V domains shown)
VH: EVQLQQSGPEFVRPGTSVKFSCKVSGGSITSYFIHFVKQRPGQGLEWIGKIDPEDDSTKYGEKFKNKATLTADTSSNTAFLKLSSLTSEDTAIYFCTTLTGLDYWGQGVMVTVSS
VL: DIQMTQSPPVLSAAVGDRVTLSCKASRSLNKNLDWYQQKHGETPKLLIYHTHNLQTGIPSRFSGSGSDTDYTLTISSLQTEDVATYYCYQYHSGWTFGGGTRLELRR
B7: 82-1109A (antibody, IgG2b, V domains shown)
VH: QVQLQQSGVELAKPGSSVKISCKASGNTFTSNYITWIKQTPGQGLEYIGYINTGSGKTYYNEKFKGKATLTADKSSSTAFMQLSSLTPDDSAVYFCASLTGVDYFDDWGQGVMVTVSS
VL: DDIVLTQSPALAPSLGQRATISCRASQSVRMSGYNLMHWYQQKPGQQPKLLIYDASKLASGIPARFSGSGSGTDFTLTIDPVQSDDIATYYCQQSKDDPYTFGAGTKLELRR

Target: T1, Mutant 1 of human SPNS2 (FLAG tag …)
Assay: flow cytometry, FLAG-insertion mutant
Method: (§1) After the lipofection, the HEK 293 cells cultivated overnight were recovered from the culture dishes, and reacted with a cell staining buffer (BioLegend, 420201) containing an anti-FLAG antibody (Sigma-Aldrich, F1804) and an anti-SPNS2 antibody each in a volume of 20 μg/mL for 30 minutes at room temperature. After washing with a cell staining buffer one time, the anti-FLAG antibody was detected with an anti-mouse IgG-Alexa 647 conjugate antibody, and the anti-SPNS2 antibody was detected with an anti-rat IgG-FITC conjugate antibody with flow cytometer BD LSR Fortessa (Becton Dickinson). The binding ability to each mutant was evaluated with the ratio of the FITC-positive cell rate to the Alexa 647-positive cell rate. In Table 7, symbol (+) indicates a ratio of less than 0.1, symbol (±) indicates a ratio of 0.1 or more and less than 0.5, and symbol (−) indicate a ratio of 0.5 or more.

B1 and B2 cannot be ordered by “FITC+/Alexa 647+ cell rate ratio” value: under 0.1 ratio for the first, under 0.1 ratio for the second.

B3 and B4 cannot be ordered by “FITC+/Alexa 647+ cell rate ratio” value: under 0.1 ratio for the first, under 0.1 ratio for the second.

B5 and B6 cannot be ordered by “FITC+/Alexa 647+ cell rate ratio” value: under 0.1 ratio for the first, under 0.1 ratio for the second.

For B7, the “FITC+/Alexa 647+ cell rate ratio” value was at least 0.5 ratio.

Target: T2, Mutant 3 of human SPNS2 (FLAG tag …)
Assay: flow cytometry, FLAG-insertion mutant
Method: as §1

B1 and B2 cannot be ordered by “FITC+/Alexa 647+ cell rate ratio” value: at least 0.5 ratio for the first, at least 0.5 ratio for the second.

B3 and B4 cannot be ordered by “FITC+/Alexa 647+ cell rate ratio” value: at least 0.5 ratio for the first, at least 0.5 ratio for the second.

B5 and B6 cannot be ordered by “FITC+/Alexa 647+ cell rate ratio” value: at least 0.5 ratio for the first, at least 0.5 ratio for the second.

With B7 the “FITC+/Alexa 647+ cell rate ratio” value was under 0.1 ratio.

Target: T3, Mutant 4 of human SPNS2 (FLAG tag …)
Assay: flow cytometry, FLAG-insertion mutant
Method: as §1

B1 and B2 cannot be ordered by “FITC+/Alexa 647+ cell rate ratio” value: at least 0.5 ratio for the first, at least 0.5 ratio for the second.

B3 and B4 cannot be ordered by “FITC+/Alexa 647+ cell rate ratio” value: at least 0.5 ratio for the first, at least 0.5 ratio for the second.

B5 and B6 cannot be ordered by “FITC+/Alexa 647+ cell rate ratio” value: at least 0.5 ratio for the first, at least 0.5 ratio for the second.

For B7, the “FITC+/Alexa 647+ cell rate ratio” value was under 0.1 ratio.

Target: T4, Mutant 2 of human SPNS2 (FLAG tag …)
Assay: flow cytometry, FLAG-insertion mutant
Method: as §1

Compared with B1, B2 is higher in “FITC+/Alexa 647+ cell rate ratio” value: under 0.1 ratio for the first, at least 0.5 ratio for the second.

First: B3
Second: B4
The “FITC+/Alexa 647+ cell rate ratio” value of the first is higher: at least 0.5 ratio for the first, under 0.1 ratio for the second.

B5 and B6 cannot be ordered by “FITC+/Alexa 647+ cell rate ratio” value: under 0.1 ratio for the first, under 0.1 ratio for the second.

For B7, the “FITC+/Alexa 647+ cell rate ratio” value was at least 0.5 ratio.
